± gives the standard deviation.

The nature of the data set: protein stability index of a GFP-peptide fusion (GPS, HEK-293T) (PSI 1-6); higher = more stable.
Where [1] appears, read: treatment: DMSO, c terminus: a fixed tail appended.
Where [2] appears, read: treatment: MLN4924 1 uM, 8 h, c terminus: a fixed tail appended.
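Also: 24-mer peptide tiles fused after GFP, lentivirally expressed, FACS-sorted into six equal bins by GFP/DsRed ratio, decoded by Illumina sequencing, PSI is the read-weighted mean bin number.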

Regarding VEKETQEKMTILQTYFRQNRDEVL [ATP6V1G1], the protein stability index by setting is: under setting [1], 3.61 ± 0.34; under setting [2], 3.78 ± 0.26.
Regarding VEVDAAPAVDLNQVLNETRNQYEA [KRT33B], the protein stability index by setting is: under setting [1], 4.91 ± 0.29; under setting [2], 5.17 ± 0.21.
VFEYCDHTLLNELERNPNGVADGV [CDKL4]: the protein stability index by setting is: under setting [1], 3.89 ± 0.57; under setting [2], 4.03 ± 0.55.
Turning to VFFLFPHSVLVDDDGIKVVKVTFN [TMEM106C], the protein stability index is, setting by setting: under setting [1], 2.76 ± 0.45; under setting [2], 2.65 ± 0.74.
In the same order, the values of VFLNLHTLKFYCLPDNYEIIDSSL [USP39] are 3.08 ± 0.48 and 2.58 ± 0.33.
In the same order, the values of VGIYATNSAEACQYVITHAKVNIL [ACSBG2] are 2.73 ± 0.69 and 2.38 ± 0.83.
On to VGRLKRERSMSENAVRQNGQLVRN [MFF], for which the protein stability index is, setting by setting: under setting [1], 5 ± 0.16; under setting [2], 4.94 ± 0.078.
VHVFGDELSLVTLFRCIQNMPETL [TNFSF13B]: the protein stability index is, setting by setting: under setting [1], 2.5 ± 0.31; under setting [2], 2.58 ± 0.58.
Consider VILEVSLEGSHDTANCEACTLGIC [RTP4], for which the protein stability index was found to be 3.86 ± 0.13 under setting [1] and 3.78 ± 0.28 under setting [2].
The sequence VILSEIKEAVAALPPDVTTQSVMG [TCF25] came in with a protein stability index under setting [1] of 2.77 ± 0.43 and a protein stability index under setting [2] of 2.65 ± 0.2.
For VKDEAHQAQKDPKKDRPLARRKSE [PPP2R5C], in that order: 5.55 ± 0.25 and 5.43 ± 0.22.
For VKDLIKKLLVVDRTRRLGNMKNGA [PRKX], in that order: 2.62 ± 0.57 and 2.33 ± 0.56.
As for VKEDDKLIFHRHPVAQSTDAIRGK [SPSB1], the protein stability index came out at 4.56 ± 0.25 under setting [1] and 4.69 ± 0.25 under setting [2].
Regarding VKLGPALTPHIVQYQANKVTHTLT [PPEF2], the protein stability index reads like this: under setting [1], 2.35 ± 0.34; under setting [2], 2.2 ± 0.42.
For VKQEEDIKPPPPLVLNSQQSDTLE [RAD54B], in that order: 5.42 ± 0.22 and 5.39 ± 0.33.
As for VLEAKMTMLTVIEQPVPPTPATPE [EMID1], the protein stability index was found to be 3.72 ± 0.38 under setting [1] and 3.89 ± 0.24 under setting [2].
For VLGGRRLRRAWFSWPRASPASGAS [SCNN1D], in that order: 2.89 ± 0.35 and 2.86 ± 0.39.
As for VLSESSGPSNTSHSSSRDSHLSNG [C2CD2L], the protein stability index was 4.96 ± 0.28 under setting [1] and 5 ± 0.13 under setting [2].
For VLSILHATLPGIFMLLLIFFAFLH [SOAT2], in that order: 2.87 ± 0.32 and 3.17 ± 0.41.
As for VPDGLGLDEAREEEGDREVVLYG [TRIB3], the protein stability index reads like this: (treatment: DMSO, c terminus: native) 4.96 ± 0.33; (treatment: MLN4924 1 uM, 8 h, c terminus: native) 5.26 ± 0.28.
As for VPEEPPVKKLMRTSTPPPASVINN [ZBED1], the protein stability index is, setting by setting: under setting [1], 4.89 ± 0.29; under setting [2], 4.94 ± 0.19.
For VPVKKQKTRTVFSSTQLCVLNDRF [NANOGP8], in that order: 2.57 ± 0.23 and 2.77 ± 0.32.
As for VQKSIYSEFLKRFVEATRKWKVGI [ALDH8A1], the protein stability index under setting [1] worked out at 2.75 ± 0.91 and the protein stability index under setting [2] is 2.83 ± 0.54.
In the same order, the values of VRLDRVRGGRQKYKRRIDAENSPY [ESRRG] are 3.81 ± 0.25 and 3.75 ± 0.052.
In the same order, the values of VSTKEQILDLLVLEQFLSILPKEL [ZSCAN9] are 3.21 ± 0.93 and 3.02 ± 0.65.
Turning to VSVPENLPVGTQLLTVTATDRDEG [PCDHGA10], the protein stability index by setting is: under setting [1], 5.42 ± 0.38; under setting [2], 5.27 ± 0.12.
For VTHTEISPEQQFDRSVQRLLATRI [TMEM175], in that order: 3.2 ± 0.28 and 3.34 ± 0.25.
Take VTMSSLFKHILRTEGAFGLYRGLA [SLC25A25]: the protein stability index runs as follows: under setting [1], 2.5 ± 0.69; under setting [2], 2.65 ± 0.51.
On to VVCRQLGLGFASNAFQETWYWHGD [LOXL2], for which the protein stability index runs as follows: under setting [1], 2.55 ± 0.55; under setting [2], 2.42 ± 0.31.
For VVKQFVTGIIDSLTISPKAARVGL [MATN2], the protein stability index runs as follows: under setting [1], 2.15 ± 0.34; under setting [2], 3.15 ± 1.4.
For the sequence VVPEKLDDLVPKGKKFLLLSINRY [ALG2], the protein stability index runs as follows: under setting [1], 2.07 ± 0.36; under setting [2], 2.08 ± 0.42.
For VVRLLLEHYRVQTQQTGTVRFDGY [FEM1B], in that order: 2.62 ± 0.57 and 2.63 ± 0.58.
For VWNMTATRPKKMGSQLPKPRMLRE [FATE1], in that order: 2.94 ± 0.24 and 3 ± 0.12.
On to VYAGRPLSVIQMVAFLEQRASALL [FBXO34], for which the protein stability index was 1.98 ± 0.39 under setting [1] and 2.29 ± 0.35 under setting [2].
For VYSWPKNKKNILLRLLREEEYVAP [TRAF3IP2], in that order: 2.11 ± 0.68 and 2.5 ± 0.59.
For WATRKPPAPKSTYECRCIGEEKEM [TIA1], in that order: 2.98 ± 0.44 and 3.4 ± 0.58.
With WDIGRGKLYHQSKGPGAPQYPAGT [SPSB2], the protein stability index was determined as 3.72 ± 0.095 under setting [1] and 3.53 ± 0.07 under setting [2].
In the same order, the values of WDPSVQSCKEGLSPRGPAPGEEKF [ZNF263] are 5.43 ± 0.1 and 5.46 ± 0.092.
For WDSGCLAPPSTRTSHSLPESSVPS [PLEKHN1], in that order: 4.4 ± 0.59 and 4.64 ± 0.23.
For WEFKLSDPDEVARRWGKRKNKPKM [ETS1], in that order: 3.65 ± 0.27 and 3.67 ± 0.067.
In the case of WGVCEPQREEVEERMWAAIQSWDI [ZER1], the protein stability index came to 3.35 ± 0.22 under setting [1] and 3.56 ± 0.3 under setting [2].
For WICQRSTVASMMHRQETVDCLKKF [CAMK2D], the protein stability index is, setting by setting: under setting [1], 2.67 ± 0.15; under setting [2], 2.43 ± 0.64.
In the same order, the values of WMQVASLNEKRTFFHLSALKGYLY [KLHL13] are 2.76 ± 0.57 and 2.58 ± 0.36.
In turn, WQLFGPFGAVTNVKVIRDFTTNKC [ELAVL3] showed a protein stability index under setting [1] of 2.36 ± 0.37 and a protein stability index under setting [2] of 2.2 ± 0.26.
WQLLLFLCATHFGEPLEKVASVGN [KISS1]: the protein stability index runs as follows: under setting [1], 2.78 ± 1.2; under setting [2], 2.29 ± 0.35.
In the same order, the values of WSSRSPQERSRVLNQVADLLEQSL [ALDH8A1] are 2.8 ± 0.12 and 3.08 ± 0.54.
For WTVANMEEIKKLTTDPDLILEVLR [LARP4], in that order: 2.15 ± 0.29 and 2.62 ± 0.27.
In the case of YAILDEKKSELLQRITQEQEKKLS [TRIM63], the protein stability index is 4.35 ± 0.17 under setting [1] and 4.52 ± 0.13 under setting [2].
For YAVGGSDGTSPLNTVERYNPQENR [KLHL20], in that order: 4.53 ± 0.33 and 4.79 ± 0.28.
As to YDVEMTDELVGLPFSSHTYSQASE [FBXO34], the protein stability index reads like this: under setting [1], 4.52 ± 0.32; under setting [2], 4.52 ± 0.23.
For YFISTVKRSWTSAQNACSEHGATL [CD69], in that order: 2.09 ± 0.49 and 2.07 ± 0.3.
For YGFYLRAGSEQKGQIIKDIDSGSP [PDZK1], in that order: 3.2 ± 0.17 and 3.17 ± 0.36.
Consider YGGSGDGLIPTGSGRHPSHSTTPS [ARFIP2], for which the protein stability index runs as follows: under setting [1], 4.26 ± 0.069; under setting [2], 4.51 ± 0.29.
In the same order, the values of YGTQRTLILESQNWRYATGGWETV [FUT8] are 2.1 ± 0.13 and 2.16 ± 0.14.
In the same order, the values of YHAVVEPMLWNPSGTPKRYSLELG [C22orf31] are 2.77 ± 0.54 and 2.81 ± 0.17.
For YHPEEFVCSQCGKVLEEGGFFEEK [PDLIM7], in that order: 3.94 ± 0.5 and 3.93 ± 0.57.
In the case of YKVSAASSFFFSGVFVGVISFGQL [SLC22A15], the protein stability index was 3.24 ± 0.1 under setting [1] and 3.25 ± 1.5 under setting [2].
In the same order, the values of YLHTVSDCDTSSICEDSFDGRSLS [SCARA5] are 4.37 ± 0.13 and 4.51 ± 0.14.
Consider YLKNLPLLSKYCGYREDNIPQLED [TPH1], for which the protein stability index by setting is: under setting [1], 2.57 ± 0.09; under setting [2], 2.77 ± 0.2.
In the same order, the values of YLPSTEFSVSSTSRRIYRCRNCIN [IQUB] are 2.62 ± 0.31 and 3.61 ± 0.38.
Take YLVENNANISIANKYDNTCLMIAA [FEM1B]: the protein stability index came out at 2.38 ± 0.1 under setting [1] and 2.21 ± 0.22 under setting [2].
For YMYLVIEELTREAVAVDVAVPKRL [HAGHL], in that order: 2.57 ± 0.57 and 2.71 ± 0.41.
For YNPHPGFPELGYSYGGGSASSQHS [DVL3], the protein stability index reads like this: under setting [1], 2.95 ± 0.36; under setting [2], 3.29 ± 0.26.
In the same order, the values of YPCIPNHELVWAKMKGFGFWPAKV [ZMYND11] are 3.09 ± 1.4 and 2.19 ± 0.3.
On to YQPAPYFAAEARYPIYVIPEPPPV [TENT5D], for which the protein stability index under setting [1] is 2.02 ± 0.18 and the protein stability index under setting [2] came out at 2.35 ± 0.55.
YSFRKLPDTQLLKFQLNKYTGEIK [PCDHGA10] registered a protein stability index under setting [1] of 2.39 ± 0.37 and a protein stability index under setting [2] of 2.54 ± 0.3.
YSLASGAGGGGSKGNSLKRSKSIR [RAB40C]: the protein stability index runs as follows: under setting [1], 4.37 ± 0.17; under setting [2], 4.41 ± 0.26.
For YSLQMKRVIACQKTAHDSNVLHVA [WDR41], in that order: 2.23 ± 0.14 and 2.38 ± 0.32.
For YVINWFMSFGPEIKLNTSQQGRNQ [FAM104B], in that order: 2.67 ± 1.7 and 2.53 ± 0.71.
With YVLNLLYETKKHLVQLPNINRVST [PPEF2], the protein stability index amounted to 2.49 ± 0.68 under setting [1] and 2.59 ± 0.39 under setting [2].
For YVTTNVSLIPPRSEQLVNFTGKAE [TMEM106C], in that order: 2.49 ± 0.57 and 2.8 ± 0.68.

The record behind these values is the supplement of paper PMC10567573.
